The record followed here is patent publication US20250250350.

The series addresses ALPG/P priming receptor of the AB-1013, AB-1014 and AB-1015 circuits.

Chain of ALPG/P priming receptor of the AB-1013, AB-1014 and AB-1015 circuits (chain, as listed by the source): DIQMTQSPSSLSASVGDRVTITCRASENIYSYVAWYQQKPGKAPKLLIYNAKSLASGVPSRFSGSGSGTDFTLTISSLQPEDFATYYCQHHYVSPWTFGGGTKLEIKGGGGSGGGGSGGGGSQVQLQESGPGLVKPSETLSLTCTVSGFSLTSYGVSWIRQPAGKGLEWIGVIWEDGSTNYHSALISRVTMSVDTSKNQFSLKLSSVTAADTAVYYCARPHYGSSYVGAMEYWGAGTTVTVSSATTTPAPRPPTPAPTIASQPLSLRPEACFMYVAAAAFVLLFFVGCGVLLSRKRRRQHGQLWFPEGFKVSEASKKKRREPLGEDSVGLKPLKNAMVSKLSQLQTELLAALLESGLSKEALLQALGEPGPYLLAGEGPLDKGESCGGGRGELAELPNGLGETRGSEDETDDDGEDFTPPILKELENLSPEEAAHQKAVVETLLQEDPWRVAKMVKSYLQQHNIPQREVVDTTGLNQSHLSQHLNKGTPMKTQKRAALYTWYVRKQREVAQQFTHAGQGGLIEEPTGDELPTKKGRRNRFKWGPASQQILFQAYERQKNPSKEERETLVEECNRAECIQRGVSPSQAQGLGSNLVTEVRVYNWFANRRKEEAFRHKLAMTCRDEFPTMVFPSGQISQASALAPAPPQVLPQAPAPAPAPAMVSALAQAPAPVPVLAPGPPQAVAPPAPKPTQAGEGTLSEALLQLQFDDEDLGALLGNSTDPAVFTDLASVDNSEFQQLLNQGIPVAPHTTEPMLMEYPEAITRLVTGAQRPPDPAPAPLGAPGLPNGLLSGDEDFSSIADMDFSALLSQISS

B1: Alkaline Phosphatase, Germ Cell (ALPG) expressed on K562-ALPG and K562-ALPG/MSLN target cells (protein)
chain: IIPVEEENPDFWNRQAAEALGAAKKLQPAQTAAKNLIIFLGDGMGVSTVTAARILKGQKKDKLGPETFLAMDRFPYVALSKTYSVDKHVPDSGATATAYLCGVKGNFQTIGLSAAARFNQCNTTRGNEVISVMNRAKKAGKSVGVVTTTRVQHASPAGAYAHTVNRNWYSDADVPASARQEGCQDIATQLISNMDIDVILGGGRKYMFPMGTPDPEYPDDYSQGGTRLDGKNLVQEWLAKHQGARYVWNRTELLQASLDPSVTHLMGLFEPGDMKYEIHRDSTLDPSLMEMTEAALLLLSRNPRGFFLFVEGGRIDHGHHESRAYRALTETIMFDDAIERAGQLTSEEDTLSLVTADHSHVFSFGGYPLRGSSIFGLAPGKARDRKAYTVLLYGNGPGYVLKDGARPDVTESESGSPEYRQQSAVPLDGETHAGEDVAVFARGPQAHLVHGVQEQTFIAHVMAFAACLEPYTACDLAPRAGTTD
Turning to B1, the “time to peak of ALPG-dependent CAR conversion” value is recorded as “reached a peak after around 100 hours of stimulation with the PrimeR antigen”.
